Results reported in publication PMC8265312.

Key:
[1] = molecular target: recombinant human GAPDH (human) (UniProt P04406); assay: SPR
[2] = molecular target: endogenous huGAPDH on the surface of dying A549 cells (human (endogenous in A549)) (UniProt P04406); assay: competition of binding to cells, cell-bound PspA detected by immunoblot

“recombinant His-tagged PspA (pneumococcal surface protein A) composed of the αHD and PRD (domain or fragment)” gave a Kd [1] of 2950 nM and a percent reduction of cell-bound PspA by GAPDH70 [2] of 50%.
